# Reference: the DeepSol protein solubility set
# Assay: soluble on expression in E. coli; label from the status in PepcDB or PDB records
row,Sequence,soluble on expression in E. coli
1,MATPDVSVHMEEVVVVTTPDTAVDGSGVEGVKTVLVTTNLAPHGGDLTEDNMETENAAAAAAAAFTASSQLKEAVLVKMAEEGENLEAEIVYPITCGDSRANLIWRKFVCPGINVKCVQYDEHVISPKEFVHLAGKSTLKDWKRAIRMNGIMLRKIMDSGELDFYQHDKVCSNTCRSTKIDLSGARVSLSSPTSAEYIPLTPAAADVNGSPATITIETCEDPGDWTAAIGDDTFTFWRGLKDAGLLDEVIQEFHQELVETMRGLQQRVQDPPLQLRDAVLLNNIVQNFGMLDLVKKVLASHKCQMDRSREQYARDLAALEQQCDEHRRRAKELKHKSQHLSNVLMTLTPVSLPPPVKRPRLARATSGPAAMASQVLTQSAQLALGPGVPVPQLTSVPLGKVVSTLPSTVLGKGSLQAPPASSPASPLLGGYTVLASSGSTYPSTVEIHPDASSLTVLSTAAVQDGSTVFKVVSPLQLLTLPGLGPTLQNVAQASPGSSTIVTVPAGAAPGPEEHTATIEVAAMAEDHERK,not soluble
2,MAQVLRGTVTDFPGFDERADAETLRKAMKGLGTDEESILTLLTSRSNAQRQEISAAFKTLFGRDLLDDLKSELTGKFEKLIVALMKPSRLYDAYELKHALKGAGTNEKVLTEIIASRTPEELRAIKQVYEEEYGSSLEDDVVGDTSGYYQRMLVVLLQANRDPDAGIDEAQVEQDAQALFQAGELKWGTDEEKFITIFGTRSVSHLRKVFDKYMTISGFQIEETIDRETSGNLEQLLLAVVKSIRSIPAYLAETLYYAMKGAGTDDHTLIRVMVSRSEIDLFNIRKEFRKNFATSLYSMIKGDTSGDYKKALLLLCGEDD,soluble
3,MWRGKYSGGYQNRFVSAKSSGTSSLSDGKSMNNVPPPAALTVGNAPVPPPNRNILLSNRKEQEMKKEQEYANLMAYGSTSEKQSRRKRIYDDEYLEGGSDDEKPASSSSKLAADDDDEEDELDAFMAGIEKQASSDKKVSEQKEKDRKEGKDTEDPSKKGLGRADIDEEDMQESLFKFMEEYKEKHENDDEQLEYDEDGNIIWSWKKVIDPLPDIDHSQIQYQKFNKNFYEEHEDIKRLHYMDVIRLQNTMNLRVGGLKPPRPVCSFAHFSFDKLLMEAIRKSEYEQPTPIQAMAIPSALSGRDVLGIAKTGSGKTAAYLWPAIVHIMDQPDLKAGEGPVAVIVVPTRELAIQVFQEAKKFCKVYNINPICAYGGGSKWEQSNELQNEGAEMVVCTPGRIIDLVKMGATNFLRTTFLVFDEADRMFDMGFEAQVKSISDHVRPDRQCLMFSATFKQKVERLARDALVDPVRIVQGEVGEANADIEQKVFVMQNQDVKLHWLIRNLVEFASLGKVLIFVTKKLDSEDVAKKLKMKDFDIVLLHGDMLQAERNENLLKFRKKSQILVATDVAARGLDISEIRTVINFDMARDIDTHVHRIGRTGRAGHKGTAYTLVTEKDIEMVGHLVKNLESVSQEVPKPLMDLAMKSSWFRGQRAGNGGPSTGTQTRGRMGLGYTPKVRQVGGGATGAQFDPLKEQKSCRGGGNQTVDGMIRNAQSFATSSSSSSSSSSGPASGANRAQMLKSAFQKSFQTTFQRPTNESSNLPQQVASDPRPEWKKKVDELNAKIAQQQASSASGGSSSSSSSSKRSRWE,not soluble
4,GAMGNERRILEQKKHYFWLLLQRTYTKTGKPKPSTWDLASKELGESLEYKALGDEDNIRRQIFEDFKPE,soluble
5,MGTGSGGPIGVSPFHSRGALKGFVISGRWPDSTKEWAQLLMVAVRVASLPGLLSTTTVFGAREELPDEPEPGTVGLVLAEGTVFGESAIQPGYFADHQPPALLMLHPPSETTPSLPECTGAASGCVLLPGLPYLGLEHRAAWVEAEADGTITSMVSRVGVDPISHPDTAILAMLLAA,soluble
6,MRVGIVGAGPAGVAAAVFLRRYNVHVTVFEKNRVGGLLRNAHLVENIPVLPPASGEEICKTLEKRLFESGAELIWEEVVKVENEKILTEREIHSFDYVIVASGTIPRRIPEFEVSEKVVYEFIDLPEFEKLAIYGAGDAAFDSALNALVRGKEVHLFNRGSRIRALPLLVERAKKYEKFYYHERCPILKVEEESKMVKLKTEHGVFTFDALLLSVGRLPNTSFVEPGERNFIVGDARGGFRQVSIAMGSAIETAMEILRREGTVSATLPLKEGLLNPNGEHQAG,soluble
7,CPQEDSDIAFLIDGSGSIIPHDFRRMKEFVSTVMEQLKKSKTLFSLMQYSEEFRIHFTFKEFQNNPNPRSLVKPITQLLGRTHTATGIRKVVRELFNITNGARKNAFKILVVITDGEKFGDPLGYEDVIPEADREGVIRYVIGVGDAFRSEKSRQELNTIASKPPRDHVFQVNNFEALKTIQNQLREKIFAIGSPGI,soluble
8,GPSSPAGGEARVHVLVLSSWRSGSSFVGQLFNQHPDVFYLMEPAWHVWTTLSQGSAATLHMAVRDLVRSVFLCDMDVFDAYLPWRRNLSDLFQWAVSRALCSPPACSAFPRGAISSEAVCKPLCARQSFTLAREACRSYSHVVLKEVRFFNLQVLYPLLSDPALNLRIVHLVRDPRAVLRSREQTAKALARDNGIVLGTNGTWVEADPGLRVVREVCRSHVRIAEAATLKPPPFLRGRYRLVRFEDLAREPLAEIRALYAFTGLSLTPQLEAWIHNITHGSGPGARREAFKTSSRNALNVSQAWRHALPFAKIRRVQELCAGALQLLGYRPVYSEDEQRNLALDLVLPRGLNGFTWASSTASHPRN,soluble
9,GKPFYYDVNFNLADSRAYITKYENPKGLLGDYYVGKEIGEIWGVETLGFFTSEEDIKNHADQSWCTSYPGTRPLAPGDLKFKDENKDGKITDGAWTLEDHGDYKIIGNSRARYTFGLSANAQWNGFDLSLFAQGVGKKDYYPGTGDLYFWGIYAQPWTNITKGNMYDHWTEENPDAYFPRMKAYVAENTDRECGVVQTRYLQNAAYMRLKNLTVGYTLPKVLLNKIGIERLRIFFSGDNLCEFSGLYKHYKVDPESLGNIVYPLQRSYSFGLNVTF,not soluble
10,GSHMSAMAESKVLVKGTPFNKPVIKGKLENNYDMSQDEVSLLLFLKTHGGKIPLYRIKNETGLKDPESVLKNLMDYGFALEDKERLGEKIVLTSEGEFVAQAIRVRDEELRLKEMKQKKNVNRSSAPPQ,soluble
11,MGSDKIHHHHHHMVKHHCRMVFKFKLGFFTDLHGSEYSFKRSLNIAKSKRVDFLIISGGLIAKEILFVEDIGGRYFLNGKKVNLNNLNEDALRSGKYIVVDKKEVIEDIKSDKSKLEKIVIEKASEQMSRWVKIAEEIFRLEKVFWSPAHGDIPQLDSILKNYGSNLINENVINLEEIQIVSLGFGSPIGNSYREIPDSELYIKGKSLLKDADKERLIMNFHMPPLNTKLDNAKVGLRKSHVGSKAVLDLITEFQPIISLHGHVHESTSMDKVGETIAINPGSLYQLGDPSIVTFEVHKELKSFGSVNVSKYVIKNIEFVSTNPLDVI,not soluble
12,MFLNGNCLETLKKKEPEGGRRRLSHPGNMGWMRPSQETTPPDRSHHSGFGLFCGDPGPEIEPFSLWVFPQEMVLEIHQLFMDHEYPCHHITSHCTWVAAHWTTSQSCAAWQGCRRACCSTWWKSPAQCTRPTVMSATFETAQEPGPS,not soluble
13,MGSVITKETVLQENIYLKKLSGLEPVDDYDPFWNKLLSFSLKFDDDDEDTRIALESALDDHLQCLMYNTQTTGNFAAFIRLFLRRATELKTSEQCENKIYLWQTSNALLILRYIARFLTQRMTEKEFVRIFAKSHESTETESSSTSSSSDEEDDDEQKSENENNNGATKYIPIVFQNTAEEFTYELVSILINISVNETTLAIHVEAVRCLLTLLSSQLYNESIVNTSIVFRFFIDGSCAKHAASLTKTLLLNYLIHNSEYHMTVQKPQESIVFGLASSMWSMVQMATGIDSAEEEKKPPLTLGNLSILLLLNLSCHQPLNSSNPFKETLALFQNAQEVSTLPTQIVSFKIDYNGLYERLCATAGQEPPMLLLYMLLQANSGFRNYVLSRINLENLVVPVLRILHDGVATSNNSHHVYLALIVALILSEDDIFCKIIHETMIKDLGWLDSDFSVREISLGGLTTLVLVRAIQKNALKTRDRYLHTNCLAALANMSAFFKNLAPIVCQRLISLLDLLTKRHAKMVDHMRVSSQNDVADGQPINFHDDITALEEGIRTLLEIINSALCGGLRHNSHLIYNLLYHRALFDAYVQHPMFQDLLVNIAAVISHFSSKVIHVPAGDGSTMLQIIEKEANIWPTDRLAKFPELKFRYVEDEYTVDFFVPYVWRLSVQHSGIYFETSRIKIFNAQSIA,not soluble
